Laboratory results as given in patent US20260167721A1 (ABLEXIS, published 2026).

Tests used:
[1] = target: T1, recombinant human CD3 epsilon/delta heterodimer (human, UniProt P07766 23-126; P04234 22-105); assay: BLI (Octet), mAb 5 ug/mL on FAB2G sensor, hCD3 E/D 200-50 nM
T1 construct: Recombinant heterodimer used as analyte in Octet; also called hCD3 E/D; human CD3E/D
Experimental: (§1) Samples were evaluated by flow cytometry analysis against Jurkat and human Pan-T cells (FIG. 1B) as well as by Octet against recombinant human CD3 proteins to evaluate apparent affinities and binding off-rates (Table 6, infra).

[2] = target: T2, recombinant human CD3 epsilon/gamma heterodimer (human, UniProt P07766 23-126; P09693 23-116); assay: BLI (Octet), mAb 5 ug/mL on FAB2G sensor, hCD3 E/G 200-50 nM;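 further: antibodies purified from hybridoma supernatants, measured by Octet binding to recombinant human CD3 protein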
T2 construct: Recombinant heterodimer used as analyte in Octet; also called hCD3 E/G
T2 sequence (P07766 23-126, chain 1 of 2): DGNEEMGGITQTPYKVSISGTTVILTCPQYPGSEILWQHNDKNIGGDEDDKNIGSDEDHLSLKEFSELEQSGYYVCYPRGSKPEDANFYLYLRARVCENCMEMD
T2 sequence (P09693 23-116, chain 2 of 2): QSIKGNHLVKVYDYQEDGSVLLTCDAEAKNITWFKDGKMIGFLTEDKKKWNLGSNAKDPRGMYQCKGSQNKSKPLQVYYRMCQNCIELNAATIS
Experimental: as §1

T1 sequence (P07766 23-126, stated change not applied, chain 1 of 2): as the sequence (P07766 23-126, chain 1 of 2) above
T1 sequence (P04234 22-105, stated change not applied, chain 2 of 2): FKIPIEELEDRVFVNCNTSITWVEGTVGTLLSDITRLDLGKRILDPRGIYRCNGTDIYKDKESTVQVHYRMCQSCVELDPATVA

Binder	Kd [1] [nM]	Response [1]	koff [1] [s⁻¹]	kon [1] [M⁻¹ s⁻¹]	Kd [2] [nM]	Response [2]	koff [2] [s⁻¹]	kon [2] [M⁻¹ s⁻¹]
ABL-CD3-68 (antibody, V domains shown, mAb purified from hybridoma; chimeric AlivaMab IgG (human VH, CH1 and upper hinge; mouse middle hinge, CH2, CH3; human light chain)) VH: EVQLVESGGGLVKPGGSLRLSCAASGFTFSSSIMNWVRQAPGKGLEWVSSISGSSSYIYYADSVKGRFTISRDNAKNSQYLQMKSLRAEDTAVYYCARERWNLLYFDYWGQGTLVTVSS VL: not shown	4.2	0.3	0.000973	232000	6.43	0.28	0.00157	244000
ABL-CD3-79 (antibody, V domains shown, mAb purified from hybridoma; chimeric AlivaMab IgG (human VH, CH1 and upper hinge; mouse middle hinge, CH2, CH3; human light chain)) VH: EVQLVESGGGLVKPGGSLRLSCAASGFTVSNYSMNWVRQAPGKGLEWVSCISRSSSYIYYADSVKGRFTISRDNAKNSLFLQMNSLRAEDTAVYYCARERWELLYFDYWGQGTLVTVSS VL: QTVVTQEPSFSVSPGGTVTLTCGLSSGSVSTSYYPSWYQQTPGQAPRTLIYSTNTRSSGVPDRFSGSILGNKAALTITGAQADDESDYYCVLYMGSGIWVFGGGTKLTVL	120	0.22	0.0473	393000	412	0.07	0.162	393000
ABL-CD3-77 (antibody, V domains shown, mAb purified from hybridoma; chimeric AlivaMab IgG (human VH, CH1 and upper hinge; mouse middle hinge, CH2, CH3; human light chain)) VH: EVQLVESGGGLVKPGGSLRLSCAASGFTFSSYSMNWVRQAPGKGLEWVSSISSSSSYIYYADSVKGRFTISRDNAKNSLYLQMNSLRAEDTAVYYCARDGELGIGTYFDYWGQGTLVTVSS VL: QSVLTQPPSVSGAPGQRVTISCTGSSSNIGAGYDVHWYQQLPGTAPKLLIYGNSNRPSGVPDRFSGSKSGTSASLAITGLQAEDEADYYCQSYDSSLSGSVFGGGTKLTVL	< 0.001	0.01	0.0135	–	< 0.001	-0.01	< 1e-07	50000
ABL-CD3-74 (antibody, V domains shown, mAb purified from hybridoma; chimeric AlivaMab IgG (human VH, CH1 and upper hinge; mouse middle hinge, CH2, CH3; human light chain)) VH: EVQLVESGGGLVKPGGSLRLSCAASGFTFSSYSMKWVRQAPGKGLEWVSSISSSSSYIYYADSVKGRFTISRDNAKNSLYLQMNSLRAEDTAVYYCARDRGELTLWYWGQGTLVTVSS VL: SYELTQPPSVSVSPGQTARITCSGDALPKKYAYWYQQKSGQAPVLVIYEDSKRPSGIPERFSGSSSGTMATLTISGAQVEDEADYYCYSTDSSGNHWVFGGGTKLTVL	55.6	0.24	0.026	467000	124	0.13	0.0609	492000
ABL-CD3-82 (antibody, V domains shown, mAb purified from hybridoma; chimeric AlivaMab IgG (human VH, CH1 and upper hinge; mouse middle hinge, CH2, CH3; human light chain)) VH: EVQLVESGGGLVKPGGSLRLSCAASGFTFSSYSMNWVRQAPGKGLEWVSSISSSSSYIYYADSVKGRFTISRDNAKNSLYLQMNSLRAEDTAVYYCARDRRELLLDYWGQGTLVTVSS VL: SYELTQPPSVSVSPGQTARITCSGDALPKKYAYWYQQKSGQAPVLVIYEDSKRPSGIPERFSGSSSGTMATLTISGAQVEDEADYYCYSTDSSGNHSWVFGGGTKLTVL	10.6	0.02	0.00192	182000	3.18	0.02	0.00197	620000
ABL-CD3-80 (antibody, V domains shown, mAb purified from hybridoma; chimeric AlivaMab IgG (human VH, CH1 and upper hinge; mouse middle hinge, CH2, CH3; human light chain)) VH: EVQLVESGGGLVKPGGSLRLSCAASGFTFSGYSMNWVRQAPGKGLEWVSSISSRSRYIYYADSVQGRFTISRDNSKNSLFLQMNSLRAEDTAVYYCGRDWRELLLDYWGQGTLVTVSS VL: SYELTQPPSVSVSPGQTARITCSGDALPKKYAYWYQQKSGQAPVLVIYEDSKRPSGIPERFSGSSSGTMATLTISGAQVEDEADYYCYSTDSSGNHSWVFGGGTKLTVL	125	0.36	0.0108	86200	148	0.11	0.036	243000
ABL-CD3-75 (antibody, V domains shown, mAb purified from hybridoma; chimeric AlivaMab IgG (human VH, CH1 and upper hinge; mouse middle hinge, CH2, CH3; human light chain)) VH: EVQLVESGGGLVKPGGSLRLSCAASGFTFSTYSLNWVRQAPGKGLEWVSSISVSSRYIYFADSVKGRFTISRDNAKNSLYLQMNSLRAEDTAVYYCARDRRELLLDYWGQGTLVTVSS VL: SYELTQPPSVSVSPGQTARITCSGDALPKKYAYWYQQKSGQAPVLVIYEDSKRPSGIPERFSGSSSGTMATLTISGAQVEDEADYYCYSTDSSGNHNWVFGGGTKLTVL	29.6	0.56	0.00726	245000	159	0.19	0.0593	373000
ABL-CD3-76 (antibody, V domains shown, mAb purified from hybridoma; chimeric AlivaMab IgG (human VH, CH1 and upper hinge; mouse middle hinge, CH2, CH3; human light chain)) VH: EVQLVESGGGLVKPGGSLRLSCAASGFTFSNYYMNWVRQAPGKGLERVSSISSSSNYIYYADSVKGRFTISRDNAKNSLYLQMNSLRAEDTAVYYCARDRRELPLDYWGQGTVVTVSS VL: SYELTQPPSVSVSPGQTARITCSGDALPKKYAYWYQQKSGQAPVLVIYEDSKRPSGIPERFSGSSSGTMATLTISGAQVEDEADYYCYSTDSSGNHWVFGGGTKLTVL	48.2	0.53	0.0125	260000	134	0.24	0.0461	345000
ABL-CD3-72 (antibody, V domains shown, mAb purified from hybridoma; chimeric AlivaMab IgG (human VH, CH1 and upper hinge; mouse middle hinge, CH2, CH3; human light chain)) VH: EVQLVESGGGLVKPGGSLRLSCAASGFTFSTYIMNWVRQAPGKGLEWVSSISSSRSYIYYADSVKGRFTISRDNAKNSLYLQMNSLRAEDTAVYYCAREDRYRLFFDYWGQGTLVTVSS VL: NFMLTQPHSVSESPGKTVTISCTRSSGSIASNYVQWYQQRPGSSPTTVIYEDNQRPSGVPDRFSGSIDSSSNSASLTISGLKTEDEADYYCQSYDSSNRVFGGGTKLTVL	109	0.17	0.07	641000	442	0.09	0.211	476000
ABL-CD3-85 (antibody, V domains shown, mAb purified from hybridoma; chimeric AlivaMab IgG (human VH, CH1 and upper hinge; mouse middle hinge, CH2, CH3; human light chain)) VH: EVQLVESGGGLVKPGGSLRLSCAASGFTFSSYSMNWVRQAPGKGLEWVSSISRRSGYIYYADSVKGRFTLSRDNAKKSLYLQMNSLRAEDTAVYYCARDLNWAFDYWGQGTLVTVSS VL: NFMLTQPHSVSESPGKTVTISCTRSSGSIASNYVQWYQQRPGSSPTTVIYEDNHRPSGVPDRFSGSIDSSSNSASLTIAGLKTEDEADYYCQSCDSSNVVFGGGTKLTVL	27.9	0.042	0.00689	247000	29.8	0.64	0.00608	204000
ABL-CD3-69 (antibody, V domains shown, mAb purified from hybridoma; chimeric AlivaMab IgG (human VH, CH1 and upper hinge; mouse middle hinge, CH2, CH3; human light chain)) VH: EVQLVESGGGLVKPGGSLRLSCAASGFTFSTYTMNWVRQAPGKGLEWVSTITSSSRYIYYADSVKGRFTISRDNAKNSLYLQMNSLRAEDTAVYYCARVTFDAFDIWGQGTMVTVSS VL: NFMLTQPHSVSESPGKTVTISCTRSSGSIASNYVQWYQQRPGSSPTTVIYEDNQRPSGVPDRFSGSIDSSSNSASLTISGLKTEDEADYYCQSYDSSNRVFGGGTKLTVL	8.14	0.87	0.000851	105000	3.73	0.88	0.000321	86100
ABL-CD3-83 (antibody, V domains shown, mAb purified from hybridoma; chimeric AlivaMab IgG (human VH, CH1 and upper hinge; mouse middle hinge, CH2, CH3; human light chain)) VH: EVQLVESGGGLVKPGGSLRLSCAASGFTFSSYSMNWVRQAPGKGLEWVSTISRSGGYIYDADSVKGRFTISRDNAKNSLYLQMNSLRAEDTAVYYCARDFNWTFDNWGQGTLVTVSS VL: NFMLTQPHSVSESPGKTVTISCTRSSGSIASNYVQWYQQRPGSSPTTVIYEDNQRPSGVPDRFSGSIDSSSNSASLTISGLKTEDEADYYCQSSDRSNVVFGGGTKLTVL	22	0.03	0.00882	401000	37.6	0.01	0.00649	173000
ABL-CD3-73 (antibody, V domains shown, mAb purified from hybridoma; chimeric AlivaMab IgG (human VH, CH1 and upper hinge; mouse middle hinge, CH2, CH3; human light chain)) VH: EVQLVESGGGLVKPGGSLRLSCAASGFTITSYSMNWVRQAPGKGLEWVSTFSRSSTYIYYADSVKGRFTISRDNAKNSLYLQMNSLRAEDTAVYYCAREKWDLLYFDYWGQGTLVTVSS VL: NFMLTQPHSVSESPGKTVTISCTRSSGSIASNYVQWYQQRPGSSPTTVIYEDNRRPSGVPDRFSGSIDSSSNSASLTISGLKTEDEADYYCQSYDNSNRVFGGGTTLTVL	1.26	1.02	0.0001	79700	6.12	0.99	0.000472	77000
ABL-CD3-81 (antibody, V domains shown, mAb purified from hybridoma; chimeric AlivaMab IgG (human VH, CH1 and upper hinge; mouse middle hinge, CH2, CH3; human light chain)) VH: QVQLQESGPGLVKPSQTLSLTCTVSGGSISSGGYYWSWIRQHPGKGLEWIGYIYYSGSTYYNPSLKSRVTISVDTSKDQFSLKLSSVTAADTAVYYCARERKTSLPFDIWGQGTMVTVSS VL: NFMLTQPHSVSESPGKTVTISCTRSSGSIASNYVQWYQQRPGSSPTTVIYEDNQRPSGVPDRFSGSIDSSSNSASLTISGLKTEDEAYYYCQSFDSSNRVFGGGTKLTVL	283	0.17	0.107	378000	912	0.04	0.692	759000
ABL-CD3-84 (antibody, V domains shown, mAb purified from hybridoma; chimeric AlivaMab IgG (human VH, CH1 and upper hinge; mouse middle hinge, CH2, CH3; human light chain)) VH: EVQLVESGGGLVKPGGSLRLSCAASGFTFSNFIMNWVRQAPGKGLEWVSSISGSSNYIYYADSVKGRFTISGDNAKNSLYLQMNSLRAEDTAVYYCAREKWVLLFFDYWGQGTLVTVSS VL: NFMLTQPHSVSESPGKTVTISCTRSSGSIASNYVQWYQQRPGSSPTTMIYEDTQRPSGVPDRFSGSIDSSSNSASLTISGLKTEDEADYYCQSYDSSNRVFGGGTKLTVL	143	0.22	0.0203	142000	145	0.1	0.0614	424000
ABL-CD3-78 (antibody, V domains shown, mAb purified from hybridoma; chimeric AlivaMab IgG (human VH, CH1 and upper hinge; mouse middle hinge, CH2, CH3; human light chain)) VH: EVQLVESGGGLVKPGGSLRLSCAASGFTVSNYSMNWVRQAPGKGLEWVSCISRSSSYIYYADSVKGRFTISRDNAKNSLFLQMNSLRAEDTAVYYCARERWELLYFDYWGQGTLVTVSS VL: NFMLTQPHSVSESPGKTVTISCTRSSGSIASNYVQWYQQRPGSSPTTVIYEDNQRPSGVPDRFSGSIDSSSNSASLTISGLKTEDEADYYCQSFDGSNRVFGGGTKLTVL	6.64	0.56	0.000568	85600	21.4	0.5	0.00157	73500
